Assays:
[1] = target: Human casein kinase II (CK), cell-free expressed with C-terminal HSV epitope tag and polyhistidine tag
[2] = target: human MDM2 (ubiquitin-protein ligase E3 MDM2), cell-free expressed with C-terminal HSV epitope tag and polyhistidine tag, Q00987
[3] = target: human p53 oncoprotein (cellular tumor antigen p53), cell-free expressed from pETBlue-2 with C-terminal HSV epitope tag and polyhistidine tag, P04637
[4] = target: human protein kinase A catalytic subunit alpha, cell-free expressed with C-terminal HSV epitope tag and polyhistidine tag, P17612

B1: human recombinant ZAP-70 tyrosine kinase (Invitrogen Corporation) (protein)
chain: MPDPAAHLPFFYGSISRAEAEEHLKLAGMADGLFLLRQCLRSLGGYVLSLVHDVRFHHFPIERQLNGTYAIAGGKAHCGPAELCEFYSRDPDGLPCNLRKPCNRPSGLEPQPGVFDCLRDAMVRDYVRQTWKLEGEALEQAIISQAPQVEKLIATTAHERMPWYHSSLTREEAERKLYSGAQTDGKFLLRPRKEQGTYALSLIYGKTVYHYLISQDKAGKYCIPEGTKFDTLWQLVEYLKLKADGLIYCLKEACPNSSASNASGAAAPTLPAHPSTLTHPQRRIDTLNSDGYTPEPARITSPDKPRPMPMDTSVYESPYSDPEELKDKKLFLKRDNLLIADIELGCGNFGSVRQGVYRMRKKQIDVAIKVLKQGTEKADTEEMMREAQIMHQLDNPYIVRLIGVCQAEALMLVMEMAGGGPLHKFLVGKREEIPVSNVAELLHQVSMGMKYLEEKNFVHRDLAARNVLLVNRHYAKISDFGLSKALGADDSYYTARSAGKWPLKWYAPECINFRKFSSRSDVWSYGVTMWEALSYGQKPYKKMKGPEVMAFIEQGKRMECPPECPPELYALMSDCWIYKWEDRPDFLTVEQRMRACYYSLASKVEGPPGSTQKAEAACA
phosphorylation of photo-transferred protein on microarray, anti-phosphotyrosine (RC20) detection [1]: ZAP-70 does not phosphorylate CK
phosphorylation of photo-transferred protein on microarray, anti-phosphotyrosine (RC20) detection [2]: Both kinases heavily phosphorylate the MDM protein
phosphorylation of photo-transferred protein on microarray, anti-phosphotyrosine (RC20) detection [3]: p53 is not phosphorylated by either kinase
phosphorylation of photo-transferred protein on microarray, anti-phosphotyrosine (RC20) detection [4]: phosphorylates PKA to a very slight, nearly undetectable degree

— patent US20180017550
